# Laboratory results as given in article doi:10.1101/2021.01.20.427433, “Microarray screening reveals a non-conventional SUMO-binding mode linked to DNA repair by non-homologous end-joining” (bioRxiv, 2021).
# B1: 6xHis-XRCC4^1-164 (C-to-A), wildtype for the SIMs (domain or fragment, human, UniProt Q13426 1-164, looked up)
# chain: MERKISRIHLVSEPSITHFLQVSWEKTLESGFVITLTDGHSAWTGTVSESEISQEADDMAMEKGKYVGELRKALLSGAGPADVYTFNFSKESAYFFFEKNLKDVSFRLGSFNLEKVENPAEVIRELIAYALDTIAENQAKNEHLQKENERLLRDWNDVQGRFEK
# modifications: 15N-labelled where it is the observed protein in NMR
# notes: The three cysteines are printed for the 1-180 construct amplified from this vector; also called XRCC4 head domain; source: E. coli BL21-CodonPlus (DE3)-RIL (pET-28a), purified; isotope-labelled in minimal medium for NMR
# Molecular target: T1, XLF-6xHis (human, UniProt Q9H9Q4 1-299)
# T1 construct: XLF, human, amplified from pGEX2TKP-XLF; source: E. coli (pHAT5), purified (His-trap, HiTrap Q)
# Test: BLI; XLF-6xHis and XRCC4^1-164 wildtype or mutants
# Conditions: both partners purified
# T1 sequence (Q9H9Q4 whole entry): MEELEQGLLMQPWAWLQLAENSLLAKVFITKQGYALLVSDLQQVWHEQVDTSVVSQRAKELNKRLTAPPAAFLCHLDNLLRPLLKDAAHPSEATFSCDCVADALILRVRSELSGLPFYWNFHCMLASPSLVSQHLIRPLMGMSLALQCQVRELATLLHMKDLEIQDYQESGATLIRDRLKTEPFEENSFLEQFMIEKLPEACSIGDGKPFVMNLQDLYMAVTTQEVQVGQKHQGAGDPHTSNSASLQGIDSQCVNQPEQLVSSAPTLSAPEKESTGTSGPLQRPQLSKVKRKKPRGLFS
binder,measurement,value
B1,binding result,binds
